What was measured:
Test in all cases: fluorescence polarisation
[1] = target: TAMRA-labeled SARS-CoV-2 nsp1 C-K (wild type) (SARS-CoV-2) (UniProt P0DTD1)
[2] = target: TAMRA-labeled SARS-CoV-2 nsp1 R124A/K125A (SARS-CoV-2) (UniProt P0DTD1)
[3] = target: TAMRA-labeled SARS-CoV-2 nsp1 R99A (SARS-CoV-2) (UniProt P0DTD1)

“purified ribosomes (crude 80S from HeLa cell lysate) (complex)” gave a Kd [1] of 29.4 nM, a fold increase in KD against WT nsp1 [2] of 2.2 fold and a fold increase in KD against WT nsp1 [3] of 1.8 fold.
